# ± gives the uncertainty stated by the source.
# Test: self-splicing fitness, log relative to wild type (ln ratio); higher = more splicing; Tetrahymena group I intron in knt gene, E. coli kanamycin selection, DiMSum; sequences stand for … in CUCUCU…GGAGGGAAAAGUUAUCAGGCAUGCACCUGGUAGCUAGUCUUUAAACCAAUAGAUUGCAUCGGUUUAAAAGGCAAGACCGUCAAAUUGCGGGAAAGGGGUCAACAGCCGUUCAGUACCAAGUCUCAGGGGAAACUUUGAGAUGGCCUUGCAAAGGGUAUGGUAAUAAGCUGACGGACAUGGUCCUAACCACGCAGCCAAGUCCUAAGUCAACAGAUCUUCUGUUGAUAUGGAUGCAGUUCACAGACUAAAUGUCGGUCGGGGAAGAUGUAUUCUUCUCAUAAGAUAUAGUCGGACCUCUCCUUAAUGGGAGCUAGCGGAUGAAGUGAUGCAACACUGGAGCCGCUGGGAACUAAUUUGUAUGCGAAAGUAUAUUGAUUAGUUUUGGAGUACUCGUGGUCG
# Outline: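 Fitness was computed with DiMSum as the error-weighted combination of replicate fold changes, kanamycin versus none, each normalised to wild type. The library randomised all eight intron nucleotides of the P1ex region, with the intron placed in the knt kanamycin-resistance gene on pET-22b(+) in E. coli BL21(DE3). Six replicate transformations were grown overnight at 37°C or 30°C on LB agar with or without 25 μg/mL kanamycin, plus 100 μg/mL carbenicillin, 50 μM IPTG and 0.2% rhamnose. Pooled colonies were amplicon-sequenced on an Illumina HiSeq 2500.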
Sequence,self-splicing fitness (ln) (30 °C),self-splicing fitness (ln) (37 °C)
AGUAAGCAAUAUUACGGCCU,0.0223 ± 0.17,-0.034 ± 0.26
AGAAAGCAAUAUUACGCAAU,-2.18 ± 0.072,-0.965 ± 0.075
CCUCAGCAAUAUUACGUCAC,-3.97 ± 0.27,-2.36 ± 0.26
UCUCAGCAAUAUUACGUUUC,-4.29 ± 0.42,-1.97 ± 0.34
UGGUAGCAAUAUUACGGGCA,-0.0931 ± 0.13,0.591 ± 0.13
GGAAAGCAAUAUUACGUUUG,-3.17 ± 0.26,-1.79 ± 0.25
AACUAGCAAUAUUACGUGCC,-1.39 ± 0.12,-0.755 ± 0.13
UAGAAGCAAUAUUACGUGAA,-2.05 ± 0.07,-1.5 ± 0.092
GAUGAGCAAUAUUACGCGAU,-3.05 ± 0.34,-1.57 ± 0.21
CUCAAGCAAUAUUACGAAUG,-2.96 ± 0.15,-1.66 ± 0.2
AUAAAGCAAUAUUACGGGCG,-0.028 ± 0.097,-0.567 ± 0.1
CUCGAGCAAUAUUACGGCCU,–,-1.37 ± 0.36
CGCUAGCAAUAUUACGGAGG,-1.78 ± 0.099,-0.655 ± 0.13
UUAGAGCAAUAUUACGGAAA,-2.59 ± 0.19,-1.72 ± 0.23
GUAAAGCAAUAUUACGAAUC,-1.71 ± 0.14,-0.902 ± 0.14
AUUUAGCAAUAUUACGGCGC,-0.408 ± 0.16,-0.248 ± 0.22
UUGAAGCAAUAUUACGUUGU,-2.87 ± 0.11,-2.24 ± 0.16
UGUCAGCAAUAUUACGGGUG,-0.605 ± 0.042,-0.00626 ± 0.067
ACGGAGCAAUAUUACGCGAG,-2.86 ± 0.13,-1.35 ± 0.13
CGUAAGCAAUAUUACGUAAC,-4.35 ± 0.26,-2.51 ± 0.21
AAGAAGCAAUAUUACGAAAA,-1.8 ± 0.17,-1.57 ± 0.18

Sequence,self-splicing fitness (ln) (30 °C),self-splicing fitness (ln) (37 °C)
CGCCAGCAAUAUUACGCGGC,-4.11 ± 0.47,-3.03 ± 0.27
AAUGAGCAAUAUUACGAGAG,–,-2.7 ± 0.41
CACCAGCAAUAUUACGUCGG,-1.36 ± 0.059,-0.518 ± 0.072
GAAAAGCAAUAUUACGGCAG,-3.02 ± 0.25,-1.96 ± 0.23
UAACAGCAAUAUUACGCGUA,-0.931 ± 0.063,-0.365 ± 0.067
CUAAAGCAAUAUUACGAUCG,0.485 ± 0.073,0.485 ± 0.1
AGCGAGCAAUAUUACGGCGC,-2.72 ± 0.22,-1.98 ± 0.2
GACAAGCAAUAUUACGUUAC,-3.32 ± 0.15,-2.36 ± 0.17
AUUCAGCAAUAUUACGGGAG,-0.828 ± 0.051,-0.443 ± 0.063
UGGUAGCAAUAUUACGCUAU,-4.7 ± 0.42,-2.87 ± 0.23
UAUUAGCAAUAUUACGACGC,-2.92 ± 0.48,-2.18 ± 0.38
CGACAGCAAUAUUACGUCCA,-0.437 ± 0.066,-0.321 ± 0.081
CACUAGCAAUAUUACGGUAU,-3.41 ± 0.23,-0.916 ± 0.13
CCCGAGCAAUAUUACGUGUU,-3.93 ± 0.15,-3 ± 0.17
AUUCAGCAAUAUUACGGGCG,-0.695 ± 0.1,-0.0814 ± 0.12
GGGAAGCAAUAUUACGUUAC,-2.75 ± 0.15,-1.15 ± 0.14
GGCUAGCAAUAUUACGAAGG,–,-0.668 ± 0.29
UUCCAGCAAUAUUACGGUUU,-0.65 ± 0.064,-0.427 ± 0.063
GCCCAGCAAUAUUACGUCAC,-2.87 ± 0.13,-2.64 ± 0.22
UAUAAGCAAUAUUACGGCAA,-0.395 ± 0.17,-0.0869 ± 0.2
UCGGAGCAAUAUUACGAUCA,–,-1.23 ± 0.48

Sequence,self-splicing fitness (ln) (30 °C),self-splicing fitness (ln) (37 °C)
GAAGAGCAAUAUUACGCACU,-2.39 ± 0.17,-1.33 ± 0.18
UGACAGCAAUAUUACGUUGU,-3.48 ± 0.15,-2.58 ± 0.2
UCAGAGCAAUAUUACGCUAA,–,1.19 ± 0.3
GAUGAGCAAUAUUACGCUUA,-2.21 ± 0.28,-2.33 ± 0.25
ACGAAGCAAUAUUACGAAUC,-3.29 ± 0.2,-2.9 ± 0.25
AGGAAGCAAUAUUACGUGUC,-3.14 ± 0.27,-1.57 ± 0.19
AAAAAGCAAUAUUACGUCUU,-0.301 ± 0.043,0.361 ± 0.063
CAAUAGCAAUAUUACGUACA,-3.18 ± 0.4,-1.82 ± 0.25
CGGAAGCAAUAUUACGUUAG,-1.41 ± 0.061,-0.697 ± 0.077
GCGUAGCAAUAUUACGAUAG,-2.2 ± 0.26,-1.83 ± 0.34
AUGGAGCAAUAUUACGGUUA,–,-2.16 ± 0.34
CGGAAGCAAUAUUACGACUU,-1.28 ± 0.084,0.261 ± 0.089
CGUAAGCAAUAUUACGGAUA,–,-2.1 ± 0.38
CGCGAGCAAUAUUACGGGCG,-3.25 ± 0.24,-3.4 ± 0.42
CCGGAGCAAUAUUACGCGCU,-1.24 ± 0.17,–
CAGGAGCAAUAUUACGUCUG,-2.47 ± 0.22,–
GGCUAGCAAUAUUACGGGGA,-2.17 ± 0.17,-1.25 ± 0.17
UGUAAGCAAUAUUACGUUAC,-2.91 ± 0.22,-3.12 ± 0.37
CUAGAGCAAUAUUACGCCAC,–,-3.44 ± 0.47
GCGUAGCAAUAUUACGGACU,-0.176 ± 0.13,-0.78 ± 0.19
AAAGAGCAAUAUUACGCAAU,-3.59 ± 0.21,-1.65 ± 0.16

Sequence,self-splicing fitness (ln) (30 °C),self-splicing fitness (ln) (37 °C)
AUCUAGCAAUAUUACGUAAG,-2.37 ± 0.12,-1.16 ± 0.15
CCCUAGCAAUAUUACGUCUC,-3.71 ± 0.41,-2.67 ± 0.27
GCAUAGCAAUAUUACGUUAC,-2.15 ± 0.41,-1.85 ± 0.4
GGGCAGCAAUAUUACGCGAG,-0.948 ± 0.094,-0.664 ± 0.098
ACUCAGCAAUAUUACGCGAA,-1.48 ± 0.061,-0.686 ± 0.069
GUUGAGCAAUAUUACGAAAU,-3.35 ± 0.44,-0.897 ± 0.27
GGUUAGCAAUAUUACGUUUA,-1.5 ± 0.096,-0.992 ± 0.088
GGUUAGCAAUAUUACGCUCC,-1.71 ± 0.39,0.76 ± 0.48
AUGGAGCAAUAUUACGGUUC,-3.93 ± 0.42,-2.56 ± 0.38
AAGGAGCAAUAUUACGAGAU,–,-2.41 ± 0.24
AUGGAGCAAUAUUACGCAGA,-2.19 ± 0.32,–
AGGAAGCAAUAUUACGUAGU,-2.73 ± 0.15,-2.63 ± 0.21
CUCGAGCAAUAUUACGAGGA,-1.94 ± 0.26,–
ACUCAGCAAUAUUACGUUAG,-2.98 ± 0.13,-0.675 ± 0.11
CGGGAGCAAUAUUACGGGCC,-1.81 ± 0.21,–
CAACAGCAAUAUUACGCGGC,-3.03 ± 0.21,-2.09 ± 0.23
CGUGAGCAAUAUUACGAGCC,–,-1.35 ± 0.41
CGAGAGCAAUAUUACGACCU,-0.7 ± 0.21,-0.635 ± 0.41

# From the supplement of paper PMC7877785
